Measurements as given in the supplement of paper PMC9112550, “Optimization of the antimicrobial peptide Bac7 by deep mutational scanning” (BMC Biology, 2022).

test system: Escherichia coli TOP10; assay: shrunken log2 fold change of peptide-encoding DNA abundance (4.5 h post-induction vs induction); higher = less antimicrobial activity (less host growth inhibition); conditions: time post-induction: 4.5 h; library: site-saturation at positions 5, 18, 19, 20
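Further: peptides expressed intracellularly from a pBAD plasmid library in pooled LB shake-flask culture, induced with 0.3% L-arabinose, DNA abundance read by NGS, three biological replicates, DESeq2 with apeglm shrinkage.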

Point of comparison: RRIRCRPPRLPRPRPRPELWPRP, “shrunken log2 fold change” value 0.732. Against it:
- RRIRFRPPRLPRPRPRPTHNPRP — lower, -0.18
- RRIRGRPPRLPRPRPRPPEQPRP — higher, 1.29
- RRIRCRPPRLPRPRPRPYDLPRP — lower, -0.325
- RRIRQRPPRLPRPRPRPEDAPRP — lower, -0.132
- RRIRDRPPRLPRPRPRPVWFPRP — higher, 1.26
- RRIRFRPPRLPRPRPRPLYLPRP — lower, -0.826
- RRIRLRPPRLPRPRPRPHNYPRP — lower, -0.749
- RRIRKRPPRLPRPRPRPAGIPRP — lower, 0.252
- RRIRARPPRLPRPRPRPEVIPRP — lower, 0.349
- RRIRKRPPRLPRPRPRPSRYPRP — lower, 0.086
- RRIRHRPPRLPRPRPRPRFEPRP — lower, 0.185
- RRIRERPPRLPRPRPRPCHTPRP — lower, -0.0292
- RRIRARPPRLPRPRPRPREAPRP — higher, 1.25
- RRIRMRPPRLPRPRPRPIKPPRP — lower, -0.231
- RRIRPRPPRLPRPRPRPLTCPRP — lower, -0.191
- RRIRKRPPRLPRPRPRPRLLPRP — lower, 0.517
- RRIRSRPPRLPRPRPRPPRVPRP — lower, 0.142
- RRIRQRPPRLPRPRPRPGSTPRP — lower, -0.146
- RRIRIRPPRLPRPRPRPKKGPRP — lower, -0.252
- RRIRHRPPRLPRPRPRPINTPRP — lower, -0.249
- RRIRMRPPRLPRPRPRPTCRPRP — lower, 0.32
- RRIRWRPPRLPRPRPRPPAGPRP — within 0.2 log units, 0.83
- RRIRDRPPRLPRPRPRPDAFPRP — lower, 0.297
- RRIRARPPRLPRPRPRPFYLPRP — lower, -0.515
- RRIRFRPPRLPRPRPRPHDRPRP — lower, 0.0063
- RRIRCRPPRLPRPRPRPSSAPRP — lower, -0.278
- RRIRPRPPRLPRPRPRPKMMPRP — lower, -0.032
- RRIRNRPPRLPRPRPRPPFKPRP — lower, -0.325
- RRIRYRPPRLPRPRPRPIVPPRP — lower, 0.0202
- RRIRQRPPRLPRPRPRPIMSPRP — lower, 0.0933
- RRIRDRPPRLPRPRPRPMRSPRP — lower, -0.00884
- RRIRRRPPRLPRPRPRPRNWPRP — lower, 0.319
- RRIRSRPPRLPRPRPRPKTPPRP — lower, 0.405
- RRIRMRPPRLPRPRPRPNRCPRP — lower, 0.172
- RRIRRRPPRLPRPRPRPIQFPRP — lower, 0.153
- RRIRMRPPRLPRPRPRPGPQPRP — higher, 1.21
- RRIRWRPPRLPRPRPRPFCIPRP — lower, -0.293
- RRIRHRPPRLPRPRPRPNIMPRP — lower, -0.596
- RRIRIRPPRLPRPRPRPWDFPRP — lower, -0.11
- RRIRGRPPRLPRPRPRPTDDPRP — higher, 1.01
- RRIRHRPPRLPRPRPRPHWTPRP — lower, -0.00191
- RRIRLRPPRLPRPRPRPFRCPRP — lower, -0.181
- RRIRERPPRLPRPRPRPLLTPRP — lower, -0.116
- RRIRGRPPRLPRPRPRPYYEPRP — lower, 0.0278
- RRIRMRPPRLPRPRPRPKAFPRP — lower, 0.0392
- RRIRDRPPRLPRPRPRPPPGPRP — within 0.2 log units, 0.774
- RRIRCRPPRLPRPRPRPYWWPRP — lower, -0.441
- RRIRGRPPRLPRPRPRPKECPRP — lower, 0.0235
- RRIRMRPPRLPRPRPRPFETPRP — lower, -0.00884
- RRIRLRPPRLPRPRPRPAMKPRP — lower, -0.0543
- RRIRSRPPRLPRPRPRPWELPRP — within 0.2 log units, 0.637
- RRIRSRPPRLPRPRPRPCMLPRP — lower, -0.472
- RRIRWRPPRLPRPRPRPVLWPRP — within 0.2 log units, 0.809
- RRIRNRPPRLPRPRPRPVMEPRP — lower, -0.173
- RRIRHRPPRLPRPRPRPIMKPRP — lower, -0.317
- RRIRMRPPRLPRPRPRPSKAPRP — lower, 0.455
- RRIRRRPPRLPRPRPRPWADPRP — lower, -0.143
- RRIRPRPPRLPRPRPRPDDDPRP — lower, -0.175
- RRIRPRPPRLPRPRPRPYAHPRP — lower, -0.0338
- RRIRNRPPRLPRPRPRPPFMPRP — lower, -0.0578
- RRIRSRPPRLPRPRPRPEVDPRP — lower, 0.51
- RRIRQRPPRLPRPRPRPCLDPRP — lower, -0.0986
- RRIRCRPPRLPRPRPRPAPNPRP — lower, 0.526
- RRIRVRPPRLPRPRPRPCGWPRP — lower, 0.302
- RRIRHRPPRLPRPRPRPWNNPRP — lower, -0.453
- RRIRIRPPRLPRPRPRPSVMPRP — lower, -0.286
- RRIRQRPPRLPRPRPRPKQHPRP — lower, -0.239
- RRIRRRPPRLPRPRPRPVQWPRP — lower, 0.143
- RRIRIRPPRLPRPRPRPHHKPRP — lower, -1.18
- RRIRLRPPRLPRPRPRPKQSPRP — lower, -0.00745
- RRIRLRPPRLPRPRPRPSTPPRP — lower, -0.207
- RRIRGRPPRLPRPRPRPELVPRP — higher, 1.58
- RRIRERPPRLPRPRPRPAMRPRP — within 0.2 log units, 0.59
- RRIRPRPPRLPRPRPRPVYLPRP — lower, -0.6
- RRIRSRPPRLPRPRPRPLPMPRP — lower, 0.256
- RRIRMRPPRLPRPRPRPMHCPRP — lower, 0.0428
- RRIRSRPPRLPRPRPRPKCEPRP — lower, -0.125
- RRIRNRPPRLPRPRPRPLIFPRP — higher, 1.39
- RRIRNRPPRLPRPRPRPPHTPRP — lower, -0.0383
- RRIRVRPPRLPRPRPRPVHGPRP — lower, -0.0285
- RRIRCRPPRLPRPRPRPLCRPRP — lower, 0.0269
- RRIRYRPPRLPRPRPRPLGKPRP — lower, -0.192
- RRIRDRPPRLPRPRPRPLYSPRP — lower, -0.411
- RRIRFRPPRLPRPRPRPTMQPRP — lower, 0.219
- RRIRERPPRLPRPRPRPKMFPRP — lower, -0.000277
- RRIRKRPPRLPRPRPRPVDLPRP — lower, -0.0854
- RRIRARPPRLPRPRPRPSFRPRP — lower, -0.262
- RRIRFRPPRLPRPRPRPAEWPRP — lower, 0.512
- RRIRKRPPRLPRPRPRPIWIPRP — lower, -0.0325
- RRIRNRPPRLPRPRPRPYCSPRP — lower, -0.0619
- RRIRQRPPRLPRPRPRPLHVPRP — lower, -0.324
- RRIRVRPPRLPRPRPRPADCPRP — lower, 0.0869
- RRIRTRPPRLPRPRPRPIQFPRP — lower, -0.0251
- RRIRPRPPRLPRPRPRPATIPRP — lower, -0.118
- RRIRCRPPRLPRPRPRPSHFPRP — lower, -0.345
- RRIRARPPRLPRPRPRPHENPRP — lower, 0.127
- RRIRFRPPRLPRPRPRPGEAPRP — lower, 0.416
- RRIRPRPPRLPRPRPRPWDMPRP — lower, -0.0229
- RRIRCRPPRLPRPRPRPDRYPRP — lower, 0.00956
- RRIRYRPPRLPRPRPRPQEPPRP — lower, -0.273
- RRIRGRPPRLPRPRPRPEFFPRP — within 0.2 log units, 0.891
- RRIRFRPPRLPRPRPRPCNGPRP — lower, -0.212
- RRIRFRPPRLPRPRPRPHHDPRP — lower, -0.379
- RRIRMRPPRLPRPRPRPVKQPRP — lower, 0.0432
- RRIRYRPPRLPRPRPRPQKVPRP — lower, -0.209
- RRIRDRPPRLPRPRPRPNDPPRP — lower, -0.125
- RRIRPRPPRLPRPRPRPFEQPRP — lower, -0.281
- RRIRRRPPRLPRPRPRPICHPRP — within 0.2 log units, 0.692
